By Km is commonly meant the concentration of substrate that gives half-maximal velocity. The kcat is the maximal rate divided by the concentration of active sites. One may read the kcat/Km as the second-order rate constant that governs catalysis at low substrate concentration.

This passage reports Km, kcat and kcat/Km results from paper PMC4486171, “Ohr Protects Corynebacterium glutamicum against Organic Hydroperoxide Induced Oxidative Stress” (PLoS ONE, 2015).

Substrate in this data set: CC(C)(OO)c1ccccc1
Nature of the data set: purified protein. The data set is classed as biochemical, Corynebacterium glutamicum. The conditions noted are these: 40 μM Lpd, 5 μM SucB, 0.2 mM NADPH, 0.1 μM Ohr, 50 mM sodium phosphate pH 7.4, 50 mM NaCl, 1 mM DTPA, 37°C.

B1: Ohr (Corynebacterium glutamicum ATCC 13032) (protein)
chain: MAIESIAYTSEALSTGSGRLGHVRSTDGALEFEMTPPKALGGSGEGTNPEQLFAVGYAACFHSAMHSVARSRKITLEDTAVGARVSIGPNGAGGFEIAVELEVSIPQLPQAEAQELADAAHQVCPYSNATRGNISVTVSVIDEEA
notes: N-terminal His6 tag (pET-28a), about 17 kDa on gel, E. coli BL21(DE3)
On to B1, for which the Km stood at 17.48 ± 0.78 µM, the kcat was determined as 5.48 s⁻¹ and the kcat/Km stood at 314300 ± 1420 M⁻¹ s⁻¹.
